# Data as given in the supplement of paper PMC10567573.
# B1: PTPRD (parent)
# chain: ITWFKDFLPVDTSNNNGRIKQLRS
# B2: ATL3 (parent)
# chain: QELEEEIKELYENFCKHNGSKNVF
# Variants of: B1
# Assay: protein stability index of a GFP-peptide fusion (GPS, HEK-293T) (PSI 1-6); higher = more stable
# Conditions: c terminus: a fixed tail appended
# 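Also: lentivirally expressed fusions sorted by FACS into six bins by GFP to DsRed ratio, PSI derived from sequencing read proportions per bin multiplied by bin number.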
row,Variant,protein stability index
1,G17A,1.58
2,G17N,1.86
3,G17H,1.37
4,G17L,1.73
5,G17C,1.88
6,G17Q,2.15
7,G17I,1.53
8,G17D,2.09
9,G17F,2.33
10,G17P,1.73
11,G17R,1.5
12,G17K,2.86
13,G17S,2.33
14,G17E,2.62
15,G17M,1.34
16,N14G,1.92
17,N14T,1.76
18,N14A,2.03
19,N14M,1.79
20,N14E,2.05
21,N14Y,1.51
22,N14S,2.94
23,N14R,1.98
24,N14L,1.96
25,N14H,1.37

row,Variant,protein stability index
1,N14W,2.16
2,N14Q,2.02
3,N14F,1.5
4,N14P,2.37
5,N14I,1.85
6,N14C,1.52
7,N14V,1.76
8,N14K,2.04
9,N14D,1.66
10,F4G,3.35
11,F4V,1.87
12,F4D,3.25
13,F4H,2.27
14,F4N,2.57
15,F4Q,2.21
16,F4A,2.17
17,F4L,1.87
18,F4E,3.97
19,F4W,2.02
20,F4I,1.62
21,F4P,2.74
22,F4T,2.03
23,F4C,1.94
24,F4Y,1.95
25,F4R,2.49

row,Variant,protein stability index
1,F4K,2.37
2,F4S,1.57
3,F4M,1.59
4,L8Q,1.78
5,L8H,1.93
6,L8D,2.31
7,L8W,1.76
8,L8A,2.14
9,L8S,2.04
10,L8E,1.85
11,L8I,2.32
12,L8K,2.28
13,L8N,2.1
14,L8R,2.41
15,L8T,2.23
16,L8F,1.88
17,L8Y,1.64
18,L8C,1.81
19,L8P,1.96
20,L8V,1.77
21,L8G,2
22,L8M,1.49
23,V10Y,1.89
24,V10M,1.86
25,V10E,2.23

row,Variant,protein stability index
1,V10R,1.82
2,V10F,2.65
3,V10H,2.07
4,V10K,2.07
5,V10D,2.39
6,V10Q,2.17
7,V10N,2.34
8,V10I,2.49
9,V10S,2.15
10,V10C,2.05
11,V10P,2.26
12,V10A,2.03
13,V10W,2.62
14,V10T,1.76
15,V10G,2.28
16,V10L,1.95
17,N15R,1.71
18,N15F,1.6
19,N15Q,1.76
20,N15G,1.72
21,N15P,1.82
22,N15L,2.37
23,N15V,1.74
24,N15A,1.61
25,N15E,1.69

row,Variant,protein stability index
1,N15I,1.58
2,N15S,1.67
3,N15D,1.74
4,N15Y,1.87
5,N15M,1.8
6,N15T,3.44
7,N15W,2.17
8,N15C,2.26
9,N15K,2.54
10,N15H,1.48
11,I1Q,2.71
12,I1A,3.26
13,I1L,2.33
14,I1W,2.17
15,I1Y,1.92
16,I1E,3.66
17,I1F,2.03
18,I1H,3.47
19,I1R,3.03
20,I1S,3.17
21,I1C,1.9
22,I1D,3.88
23,I1N,3.69
24,I1T,3.02
25,I1M,2.62

row,Variant,protein stability index
1,I1V,2.15
2,I1K,2.99
3,I1G,3.39
4,I1P,3.97
5,S13K,1.77
6,S13C,1.54
7,S13W,1.65
8,S13F,1.52
9,S13A,1.62
10,S13V,2.38
11,S13R,1.88
12,S13E,1.7
13,S13D,2.22
14,S13T,1.95
15,S13H,2.05
16,S13N,1.68
17,S13P,2.34
18,S13M,2.17
19,S13G,1.77
20,S13Y,2.05
21,S13Q,1.85
22,S13I,1.41
23,S13L,1.88
24,D11R,1.35
25,D11T,1.61

row,Variant,protein stability index
1,D11I,2.44
2,D11K,1.71
3,D11N,2.01
4,D11M,2.16
5,D11W,2.33
6,D11G,1.99
7,D11H,1.73
8,D11A,1.9
9,D11V,1.86
10,D11F,1.9
11,D11P,2.06
12,D11S,2.06
13,D11L,1.62
14,D11C,2.23
15,D11E,1.99
16,D11Y,1.67
17,D11Q,1.84
18,T2K,2.03
19,T2N,2
20,T2L,1.41
21,T2S,2.12
22,T2Q,1.84
23,T2H,2.15
24,T2W,2.21
25,T2G,2.78

row,Variant,protein stability index
1,T2C,2.09
2,T2R,1.59
3,T2P,3
4,T2E,2.33
5,T2F,2.41
6,T2I,2.18
7,T2Y,1.68
8,T2M,1.96
9,T2A,2.34
10,T2V,1.86
11,T2D,1.53
12,T12M,2.32
13,T12A,1.98
14,T12G,1.83
15,T12S,1.94
16,T12N,1.51
17,T12I,2.01
18,T12F,1.65
19,T12E,2.06
20,T12C,1.55
21,T12V,2.42
22,T12H,1.48
23,T12Q,2.25
24,T12Y,1.55
25,T12W,1.84

row,Variant,protein stability index
1,T12K,2.01
2,T12D,1.99
3,T12R,1.9
4,T12P,2.03
5,T12L,1.94
6,W3F,2.25
7,W3A,3.76
8,W3K,2.85
9,W3H,3.33
10,W3M,2.95
11,W3Y,2.95
12,W3E,4.07
13,W3S,3.62
14,W3P,3.75
15,W3Q,3.13
16,W3L,2.31
17,W3D,3.43
18,W3G,3.03
19,W3T,3.3
20,W3R,3.1
21,W3V,2.46
22,W3C,2.82
23,W3N,3.23
24,W3I,1.93
25,P9H,1.45

row,Variant,protein stability index
1,P9K,1.96
2,P9A,2
3,P9N,2.28
4,P9R,1.43
5,P9S,2.13
6,P9I,2.02
7,P9Q,2.12
8,P9E,2
9,P9F,1.93
10,P9G,1.72
11,P9C,1.58
12,P9M,2.31
13,P9L,2.84
14,P9T,1.42
15,P9V,2.04
16,P9W,1.75
17,P9Y,1.66
18,P9D,2.09
19,N16S,1.98
20,N16P,2.32
21,N16M,1.43
22,N16W,2.17
23,N16T,2.38
24,N16Q,2.26
25,N16Y,1.71

row,Variant,protein stability index
1,N16G,1.7
2,N16H,1.58
3,N16A,1.78
4,N16R,1.65
5,N16E,2.02
6,N16D,1.88
7,N16L,1.73
8,N16V,2.62
9,N16I,2.32
10,N16F,1.82
11,N16C,2.09
12,N16K,1.98
13,F7D,2.74
14,F7K,1.88
15,F7C,2.31
16,F7V,1.85
17,F7S,2.36
18,F7P,2.32
19,F7N,2.47
20,F7H,2.76
21,F7Q,2.05
22,F7M,2.46
23,F7I,2.26
24,F7A,2.45
25,F7R,1.8

row,Variant,protein stability index
1,F7Y,1.99
2,F7L,2.41
3,F7G,2.25
4,F7W,1.82
5,F7T,2.38
6,F7E,2.45
7,D6N,1.94
8,D6T,1.6
9,D6V,2.3
10,D6M,2.14
11,D6W,2.26
12,D6L,3.08
13,D6P,1.85
14,D6Y,2.85
15,D6K,1.85
16,D6E,2.36
17,D6I,3.07
18,D6Q,1.4
19,D6R,2.37
20,D6G,2.27
21,D6F,3.07
22,D6H,1.9
23,D6A,1.78
24,D6C,2.26
25,D6S,2.27

row,Variant,protein stability index
1,K5P,2.24
2,K5W,1.66
3,K5S,2.37
4,K5L,2.08
5,K5C,2.25
6,K5H,2.06
7,K5D,2.44
8,K5A,1.98
9,K5M,2.43
10,K5Y,2.75
11,K5V,1.51
12,K5N,2.12
13,K5Q,2.07
14,K5T,2.1
15,K5G,2.17
16,K5F,1.97
17,K5E,2.91
18,K5I,2.19
19,K5R,1.79

# Variants of: B2
# Assay: as above
# Conditions: c terminus: a fixed tail appended
row,Variant,protein stability index
1,H17N,2.51
2,N22G,2.28
3,N22F,2.59
4,N22S,2.96
5,E9Y,2.09
6,E5N,2.51
7,E12Y,2.03
8,E12F,2.56
9,F14I,3.16
10,F14V,3.53
11,F24G,2.73
12,C15H,4.12
13,E6I,1.78
14,E6A,2.13
15,E6P,3.28
